Data from paper PMC5397363 (Molecular microbiology, 2017).
Numbering of substitutions follows the chain as printed. Square brackets hold non-standard residues; d marks the D form. Ends that are not written are not given here. 2Abz = Nc1ccccc1C(=O)O

Assays:
Test in all cases: fluorescence polarisation
[1] = target: T1, Staphylococcus aureus Prp S38A (S. aureus, UniProt Q2FXS9 1-106, S38A)
T1 sequence: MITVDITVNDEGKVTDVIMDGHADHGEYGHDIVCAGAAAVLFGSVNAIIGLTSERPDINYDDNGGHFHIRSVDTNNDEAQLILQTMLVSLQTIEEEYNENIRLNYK

[2] = target: Staphylococcus aureus Prp C34S (S. aureus, UniProt Q2FXS9 1-106, C34S)
[3] = target: T2, Staphylococcus aureus Prp H22A (S. aureus, UniProt Q2FXS9 1-106, H22A)
T2 sequence: T1 sequence with H22A, A38S

Measured: binding result

B1: 2-Abz-KLNLQFFASKK-Am, fluorescent L27 cleavage-motif peptide without quencher (peptide)
peptide: [2Abz]KLNLQFFASKK-NH2
modifications: N-terminus assumed
SMILES: CC(C)C[C@H](NC(=O)[C@H](CCCCN)NC(=O)c1ccccc1N)C(=O)N[C@@H](CC(N)=O)C(=O)N[C@@H](CC(C)C)C(=O)N[C@@H](CCC(N)=O)C(=O)N[C@@H](Cc1ccccc1)C(=O)N[C@@H](Cc1ccccc1)C(=O)N[C@@H](C)C(=O)N[C@@H](CO)C(=O)N[C@@H](CCCCN)C(=O)N[C@@H](CCCCN)C(N)=O
binds: all assays above
